One data set addresses T1, DmGS2 (Drosophila melanogaster, UniProt P20478).
T1 construct: gene Gs2; 367 residues per monomer modelled
T1 sequence (P20478 1-369): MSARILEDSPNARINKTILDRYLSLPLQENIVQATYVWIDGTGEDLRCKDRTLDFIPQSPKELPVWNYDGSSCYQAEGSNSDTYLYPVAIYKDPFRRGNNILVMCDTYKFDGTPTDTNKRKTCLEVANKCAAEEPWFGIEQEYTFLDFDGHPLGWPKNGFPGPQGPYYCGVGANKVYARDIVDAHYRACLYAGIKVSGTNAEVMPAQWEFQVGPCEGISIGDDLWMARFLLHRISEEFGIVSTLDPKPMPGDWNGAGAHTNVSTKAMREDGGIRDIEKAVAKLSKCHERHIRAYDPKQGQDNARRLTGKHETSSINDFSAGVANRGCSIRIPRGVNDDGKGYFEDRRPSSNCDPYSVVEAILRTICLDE
Kind of data set: X-ray crystal structure, […] Å. It is filed as binding. The settings on record: active site; crystallised with ATP and MgCl2, ADP found in all 10 monomers.

Substrate in data set [1]: NC(=O)CC[C@H](N)C(=O)O
Kind of data set: purified protein. It is filed as biochemical, Drosophila melanogaster. As to conditions: saturating hydroxylamine, 3 mM MnCl2, 0.4 mM ADP, 20 mM potassium arsenate, 40 mM imidazole pH 7.9, 37 °C.

Substrate in data set [2]: N[C@@H](CCC(=O)O)C(=O)O
Put plainly: purified protein. It is filed as biochemical, Drosophila melanogaster. The settings on record: saturating NH4Cl, 12 mM ATP, 50 mM MgCl2, 50 mM imidazole-HCl pH 7.0, 37 °C.

Substrate in data set [3]: NO
Put plainly: purified protein. As to conditions: saturating glutamine, 3 mM MnCl2, 0.4 mM ADP, 20 mM potassium arsenate, 40 mM imidazole pH 7.9, 37 °C. It is filed as biochemical, Drosophila melanogaster.

Substrate in data set [4]: N
Put plainly: purified protein. The settings on record: saturating glutamate, 12 mM ATP, 50 mM MgCl2, 50 mM imidazole-HCl pH 7.0, 37 °C.

Data set [5] concerns the molecule itself. Kind of data set: crystal structure; DmGS2 with ADP bound; protein 12 mg/mL in 20 mM Tris-HCl pH 7.9, 150 mM NaCl, 5 mM MgCl2, 5 mM ATP, 1 mM sodium 2-mercaptoethanesulphonate; hanging-drop vapor diffusion; 2.12 Å.
Data set [6] deals with the molecule itself. Kind of data set: AUC; sedimentation velocity, 20 °C, samples 500 μL at 1.0 mg/mL, absorbance at 280 nm, SEDFIT85.

As to `Nc1ncnc2c1ncn2[C@@H]1O[C@H](COP(=O)(O)OP(=O)(O)O)[C@@H](O)[C@H]1O` [ADP], on DmGS2, the “X-ray crystal structure, 2.12 Å” value is “A structure was obtained for the DmGS2 decamer in complex with ADP”.

B1: DmGS2 (Drosophila melanogaster; P214A) (protein)
chain: MSARILEDSPNARINKTILDRYLSLPLQENIVQATYVWIDGTGEDLRCKDRTLDFIPQSPKELPVWNYDGSSCYQAEGSNSDTYLYPVAIYKDPFRRGNNILVMCDTYKFDGTPTDTNKRKTCLEVANKCAAEEPWFGIEQEYTFLDFDGHPLGWPKNGFPGPQGPYYCGVGANKVYARDIVDAHYRACLYAGIKVSGTNAEVMPAQWEFQVGACEGISIGDDLWMARFLLHRISEEFGIVSTLDPKPMPGDWNGAGAHTNVSTKAMREDGGIRDIEKAVAKLSKCHERHIRAYDPKQGQDNARRLTGKHETSSINDFSAGVANRGCSIRIPRGVNDDGKGYFEDRRPSSNCDPYSVVEAILRTICLDE
notes: 367 residues per monomer modelled
As a reminder, the Km is the substrate concentration at which the rate is half of its maximum. As usually defined, the Vmax is the rate approached at saturating substrate. What is called kcat is the number of substrate molecules converted per active site and unit of time at saturation. In general, kcat/Km refers to the turnover number divided by the Michaelis constant. On to B1, for which the Km in the data set “purified protein [1]” is 30.6 ± 6.1 mM; in “purified protein [2]”, 6.8 ± 2.2 mM; in “purified protein [3]” it was 1.5 ± 0.2 mM; in “purified protein [4]” it was 0.11 ± 0.03 mM. The Vmax in “purified protein [1]” is 150 µM/min; in the data set “purified protein [2]”, 10.6 µM/min; in “purified protein [3]”, 88 µM/min; in “purified protein [4]”, 5.5 µM/min. Moreover, the values for the catalytic constant (kcat) in the data set “purified protein [1]”, in the data set “purified protein [2]” and in “purified protein [4]” were 0.5 ± 0.0333 s⁻¹, 0.0355 ± 0.00183 s⁻¹ and 0.0183 s⁻¹, respectively. Besides, the values for the kcat/Km in “purified protein [1]”, in “purified protein [2]” and in “purified protein [4]” were 16.8 ± 2.33 M⁻¹ s⁻¹, 6.33 ± 2.17 M⁻¹ s⁻¹ and 177 M⁻¹ s⁻¹, respectively.

B2: Drosophila melanogaster glutamine synthetase 2 (DmGS2), wild type (enzyme, UniProt P20478 1-369, looked up)
chain: MSARILEDSPNARINKTILDRYLSLPLQENIVQATYVWIDGTGEDLRCKDRTLDFIPQSPKELPVWNYDGSSCYQAEGSNSDTYLYPVAIYKDPFRRGNNILVMCDTYKFDGTPTDTNKRKTCLEVANKCAAEEPWFGIEQEYTFLDFDGHPLGWPKNGFPGPQGPYYCGVGANKVYARDIVDAHYRACLYAGIKVSGTNAEVMPAQWEFQVGPCEGISIGDDLWMARFLLHRISEEFGIVSTLDPKPMPGDWNGAGAHTNVSTKAMREDGGIRDIEKAVAKLSKCHERHIRAYDPKQGQDNARRLTGKHETSSINDFSAGVANRGCSIRIPRGVNDDGKGYFEDRRPSSNCDPYSVVEAILRTICLDE
notes: Glutamine synthetase 2, cytoplasmic (DmGS2), Drosophila melanogaster; full-length cDNA of mature DmGS2, GenBank X52759; residues numbered to 369; 367 residues of each monomer seen in the crystal; Decamer of two stacked pentamers in the crystal (with ADP); pentamer and decamer in solution by AUC; No removal of the tags is described; also called WT DmGS2; WT; copies: 10
For orientation: stoichiometry N means a count of units in the complex or per binding partner. Take B2: the Km in “purified protein [1]” is on record as 43.1 ± 9.7 mM; in the data set “purified protein [2]”, 5.9 ± 1.6 mM; in “purified protein [3]”, 2.0 ± 0.4 mM; in the data set “purified protein [4]”, 0.47 ± 0.03 mM. Further, the Vmax in the data set “purified protein [1]” amounted to 120 µM/min; in “purified protein [2]”, 9.2 µM/min; in the data set “purified protein [3]” it was 64 µM/min; in “purified protein [4]”, 4.6 µM/min. In addition, the turnover number (kcat) in the data set “purified protein [1]” is 0.4 ± 0.0333 s⁻¹; in the data set “purified protein [2]” it was 0.0307 ± 0.00133 s⁻¹; in the data set “purified protein [4]”, 0.0153 s⁻¹. Also, the specificity constant (kcat/Km) worked out at 9.67 ± 1.33 M⁻¹ s⁻¹ in the data set “purified protein [1]”, 5.67 ± 1.33 M⁻¹ s⁻¹ in “purified protein [2]” and 32.7 M⁻¹ s⁻¹ in the data set “purified protein [4]”. Moreover, the “stoichiometry N” value in data set [5] is 10; in data set [6], 5.

B3: DmGS2 (Drosophila melanogaster; E311A) (protein)
chain: MSARILEDSPNARINKTILDRYLSLPLQENIVQATYVWIDGTGEDLRCKDRTLDFIPQSPKELPVWNYDGSSCYQAEGSNSDTYLYPVAIYKDPFRRGNNILVMCDTYKFDGTPTDTNKRKTCLEVANKCAAEEPWFGIEQEYTFLDFDGHPLGWPKNGFPGPQGPYYCGVGANKVYARDIVDAHYRACLYAGIKVSGTNAEVMPAQWEFQVGPCEGISIGDDLWMARFLLHRISEEFGIVSTLDPKPMPGDWNGAGAHTNVSTKAMREDGGIRDIEKAVAKLSKCHERHIRAYDPKQGQDNARRLTGKHATSSINDFSAGVANRGCSIRIPRGVNDDGKGYFEDRRPSSNCDPYSVVEAILRTICLDE
notes: as for B1
Regarding B3, in the data set “purified protein [2]”, the Km was found to be 26.2 ± 2.2 mM, the Vmax is 5.5 µM/min, the kcat is 0.0183 ± 0.00133 s⁻¹ and the catalytic efficiency (kcat/Km) stood at 0.7 ± 0.00833 M⁻¹ s⁻¹.

Values taken from PMC7764910, “Structural Insight into the Contributions of the N-Terminus and Key Active-Site Residues to the Catalytic Efficiency of Glutamine Synthetase 2” (Biomolecules, 2020).
